experiment: soluble fraction after stress (log2 fold change); higher = more stays soluble; pooled small domains, quantitative proteomics; details: stress: 75 degC
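Also: 20 min heating vs room temperature control held 20 min.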

Going from “HMLNDMYAVMEIRGQGGELIAKLINQDGSPFYVKKGTTLQSGHVIDEITTTYVRAEKAGAKDYLYF” to “HMLNDTGAIRAAVEEVLAANEKSVNEYKGGKTQAFQYLIGQSMRALRGKAPAQEVTKLLKELLG”, the “soluble fraction (log2)” value rises from -0.939 to -0.564.

First: HMLNQIGVSQKEFDQIHTAIKIALKTSSLTPTGITEKLPKFPPEKTADILRWMADNKEVLLNSEEKYELKT
Second: HMLPAGAAAPLEDGSAPEGYTVKGNADSGLYHEPDGRWYDATVAEFWFKTAADAEAAGFRKAGS
The “soluble fraction (log2)” value of the first is lower: -0.297 for the first, 0.149 for the second.

Compared with “HMLPDGEAFVKVNTSLNIRTGPWGQIVGWFHNNDKVKIIGRDGDWYKISHNGQTRYIHSRYVSSSR”, “HMLPDHAPITMRQLAMLHVAKNKLDLTDEDYRSLLLLYGGVESSKQLNQEGLRRVLDRFKELGFEP” is higher in “soluble fraction (log2)” value: -1.2 for the first, -0.45 for the second.

First: HMLPDLLNGRVIPSPEKVIRARLNRGVWELLVQWVGRAPSDATWENLLEFKSAYPSVQLEDALF
Second: HMLPDLQKAIDTFLYEVDSRINTSFEELIDKLNSKEEAVAFFLALLEAVRWGFIKAEQESNSINIKK
The “soluble fraction (log2)” value of the first is lower: -1.97 for the first, -0.898 for the second.

“HMLPDSQLMKEATAWFMRQAADDFSGAERRRLDAWRAQSPAHARAYHQVQALWNAPELQQAAAR” and “HMLPEGIENGDVLTRTDALDYRKWLVTGNQKRIFASTASFYGENFNYSEVKAVSDRVLDAIPDGEPV” are within 0.2 log units of each other in “soluble fraction (log2)” value: -0.113 for the first, -0.0413 for the second.

Compared with “HMLPFGHTRLEDGTIQEIPEQIALARKVAEMYKAGFPVMQISIKTEGLLTPRQIYGLMNHWGVKR”, “HMLPIKLDLEIGENVRVVSGPLENFVGSVVSFDTDQQKVKLVVEMFGRKTPVELDFIEVQKLR” is lower in “soluble fraction (log2)” value: -1.3 for the first, -2.24 for the second.

First: HMLPIMDRLITAGISINTAKKWVDKFGDKRIKQNLAYSLAKQKEGKVKTNFVGYLAKAIEEDWGSGWE
Second: HMLPKAERREQLMAVARSVFAEQGYHTTSMEIIAETAGVSKPLLYQHFPSKLDLYLALLDAGID
The “soluble fraction (log2)” value of the first is higher: -1.5 for the first, -1.8 for the second.

Going from “HMLPKILVMDGKVNKNALTTLGKDEEWVKKVLRNHNIHSIKDVLLALYDTKGKFQYQLYDDYEK” to “HMLPKNITNTIDHWIQKFPQGKQRSAIIAALHAVQHHNKGFLTNDLLNQVADYIDVPKMNVYEVATFYSM”, the “soluble fraction (log2)” value rises from -0.248 to 0.169.

Going from “HMLPLIEVPAVTGKYLTKAKSALKDAGLDTGDIKRVEHEEHGENYVLKQDPPAGTKVPFGTTVSLTVVAP” to “HMLPLLEYLDPFTGKKTYTYLNPDTQHPIFTYYSYQDDKTGRTAYSYIDPLTGKAVNSDEPPMDILYD”, the “soluble fraction (log2)” value falls from 0.427 to -0.676.

Going from “HMLPPHMEVRAIMILDKRPMALMNIEGEGDGLIVSPGYRFGDGRGRVVSITQTKVVVLWAGTSMEL” to “HMLPQYELIKQYLRHQIETGEWPIGYRTPSEPKLAEQFSVSRMTARRALQELADQGLLSRTAGSGTFVAKP”, the “soluble fraction (log2)” value rises from -2.82 to -0.921.

Compared with “HMLPVQGEEVAPGLYKFDFPFLADKRVWEKTINAFKAEHPELKVNYIYTGPDELNSKKKTHVLVYVFTES”, “HMLPVYSITEAAERLDIPASTIKWYADRFASYISPSKGKGRKRFTPEDLATLQKIHELSQDHTTEEAEAML” is higher in “soluble fraction (log2)” value: -0.539 for the first, -0.0974 for the second.

Compared with “HMLPYKGTVAVSLAVLHKAVGVGTADMLKAVGTLRQGTEVTVTGRNGPFAQLKNGLWMKESFLE”, “HMLQADALADPVGWALRTLGFDLEAGTPERSAIQRSFRQSLIEAHPDHGGADDEAAQRIADITEARRILLA” is higher in “soluble fraction (log2)” value: -1.07 for the first, -0.403 for the second.

Compared with “HMLQFTYPRLHTKKSWYVDFMSFDPGAGKMRRKKFMLDGIPKITDRRKRAAELIEVLTKQLRAGWSPWVNV”, “HMLQIADEYLDRLQALFEDVRDNHFAIGDLLVELVDMHDSRRVDVINYIAGRLAISPTTLYDYENTARR” is higher in “soluble fraction (log2)” value: -3.85 for the first, -1.15 for the second.

“HMLQLDATDRALIVATQGGLPLVPRPYQVVGEQLGISGEEVVARLRALLDAGVIRRIGAVPN” and “HMLQLKEPLKKVYERLTPVPKTAETILAELWEKGEYLDIAALHRALMELELSGYVRQSSPGYFGTSA” are within 0.2 log units of each other in “soluble fraction (log2)” value: -0.569 for the first, -0.553 for the second.

Going from “HMLQQKESAALGERLLNQALATLKVEPDAISWDRWEALAKEYGAKSQLDILADIGLGKRLSFVVAQALTKV” to “HMLRDMIIQSYRYYTDKERNPRQVWNRMEADAFWEIIRDYEGYNGDGYVHTKIIPEMEALTVIEMDN”, the “soluble fraction (log2)” value falls from -1.25 to -1.83.

Going from “HMLRISLAAARVNAEMTQEDVAREMHVSKNTVVNWEKGKSEPTISQSRELSKLYNMPLEYIFYL” to “HMLRKTTDLDAIRSVAKDVIDQNPKAVEDYVGGKESAIGFLLGQVMRATKGTADANTVRELLKEILDS”, the “soluble fraction (log2)” value rises from -2.68 to 1.01.

Compared with “HMLRPMVAILNKNISKGQVISEDYIKFEVRPERQIHGAYHDISEVLGRKTKNNIAAGTILKVRHLDT”, “HMLRQVSDSNALETAVKKVLDANPEEVERYKSGNKKLISFFVGQTMKATKGAGNPKEINSILAKLL” is higher in “soluble fraction (log2)” value: -0.69 for the first, -0.326 for the second.

Compared with “HMLSAEAAAARTAISTLSEDQQRVLGLSIQRGLVHEQIARATGLPLGTVKTHIRRGLIKVREALEAQAAG”, “HMLSAGETYTLGYLKASDGILFTAADGSEQTVMQRVQVRLYDNGDGTYTARLADDIAYSAVVTEDMIDK” is higher in “soluble fraction (log2)” value: 0.00212 for the first, 0.27 for the second.

Going from “HMLSDAAAMESIAYEAIRQMEPDTYYIIGAGTTTRGIMEVLGLKNTLIGVDLIRNKELVANDLGGKELLSY” to “HMLSDEDMMELAIIENLQRENLNPIEEARAYESLIDKGFTHTEIADKMGKSRPYISNSIRLLSL”, the “soluble fraction (log2)” value rises from 0.0782 to 0.355.

First: HMLSDFHLNHDSIVNHTVQKKETIFSLSKKYGLSINEIIKANPGIQIDKLKRRSILIIPLRKK
Second: HMLSDLTPGDLVVHATHGIGRFLGIRKLELEGMTKDYITIQYRGNENLYVPVTQMDLVSRYI
The “soluble fraction (log2)” value of the first is lower: -1.81 for the first, -1 for the second.

First: HMLSGGEVKRIEIATILARKSGLMIFDEPEAGIDLWSFARLVETFEDIRSNTSGSLVIISHQ
Second: HMLSKEERRSQLLDLGVRLLSTRSLDELSIDLLAEEAGISRGLLYHYFGNKHDFHEAVVRRAADDLI
The “soluble fraction (log2)” value of the first is higher: 0.0709 for the first, -2.15 for the second.

Compared with “HMLSLKAQVYEIIRQKILQQEYALGEKINIDTVADELKISNSPIREALMMLSQDGLIEMVPNNGARVI”, “HMLSLSDIINDVMERLTREKNLTFDELLGEKRERRRIVYTFLALLELIRLKMIKAYQTAAFGVIRIFPR” is higher in “soluble fraction (log2)” value: -1.88 for the first, -1.4 for the second.

“HMLSLTSRQQEIFDLIKGHIKKTGMPPTRSEIALHFGFRSANSAEEHLRALARKGFIELIPGTSRGIKLIE” and “HMLSPPWYEYHRKVQAMFGRDPEVHIKDLDDLGDGKFSYMILVYNKEKAEAIKAILPQKVEMGNVTIETAI” are the same in “soluble fraction (log2)” value: -1.87 for the first, -1.87 for the second.

Going from “HMLSRNEWLVMEALWERPSTLMELVRQLGQEPPGWAKSTTATMVRRMEEKGLIRHEAGSKARVYHP” to “HMLSSAAAIDRILAGGTAAMNHRQFDAALTSFNTVIEMRPDFAEGWNKRATLYYLIGEYERSIADVERTLA”, the “soluble fraction (log2)” value rises from -1.82 to 0.183.

Going from “HMLSTRERMSSLMAQLQVQQFMPFHRLFTISEGRMGVIVTFLAMMELVKENLIKLIQAQEYGPIHVSLG” to “HMLSVRERMSAILVSLEGERYADFTGLFDPTEGKGGVTVTFLAILELLKESMIDVVQNELYGPIHVRAA”, the “soluble fraction (log2)” value falls from 0.467 to -1.07.

Going from “HMLSVRNRMSDVLKSLDDGEFHRFESLFNLEEGRLGVVVTFLAMLELAKEMLVEIVQNESLGPIYLKSR” to “HMLSVRQRMGELLERLADGQFHRFESLFTVEEGKLGVVVTFLGLLTLAKEQLLDIVQEGPTAPIYVKSLA”, the “soluble fraction (log2)” value falls from 0.041 to -0.569.

First: HMLSVTLTVLPQQAGERLDAFAAAESTLSRSAAAKLIEDGQITVNGARAAKNYRLRAGDVIEIDEPEPI
Second: HMLTAPMPGTIQQILVTKGQKVRSGQTLMILEAMKMEHKIKAPNSGEIISINYSLGNRVEMGANLIEI
The “soluble fraction (log2)” value of the first is higher: -0.0471 for the first, -2.1 for the second.

For “HMLTDAAAVKRSVRNLVQYGFYEKPFHPEIGSGVRDLLFENMTPFVANNLSKQIEEIITNYEPRA”, the “soluble fraction (log2)” value was -0.314.

From the domain aggregation screens of Martell et al. (2025)
